Measurements reported in patent US6518013.

molecular target: viral gp41 (HIV-1 transmembrane envelope protein) of HIV-1IIIB (HIV-1IIIB) (UniProt P04578); assay: cell-based or functional assay

**Q.** What does the source list for “DP107 (synthetic peptide, residues 558 to 595 of HIV-1LAI gp41)”?
**A.** Cell fusion (IC90): 1000 nM; HIV infectivity (IC90): 1000 nM

**Q.** Which results are given for “DP178 (synthetic peptide, amino acids 638 to 673 of HIV-1LAI gp41)”?
**A.** Cell fusion (IC90): 1 nM; HIV infectivity (IC90): 80 nM

**Q.** Which Cell fusion (IC90) does the source give for “M41 (maltose binding protein fusion of the gp41 ectodomain, residues 540-686) (from UniProt P0AEX9 27-392; P03377 540-686)” here?
**A.** The Cell fusion (IC90) was greater than 50000 nM.

**Q.** What about the HIV infectivity (IC90) of the same substance?
**A.** Its HIV infectivity (IC90) is greater than 16000 nM.

**Q.** What does the source list for “M41-P (M41 with an Ile to Pro mutation at position 578) (from UniProt P0AEX9 27-392; P03377 540-686)”?
**A.** Cell fusion (IC90): 83 nM; HIV infectivity (IC90): 66 nM

**Q.** “M41-PΔ178 (M41-P from which the DP-178 region has been deleted; gp41 residues 540-642 with Ile578Pro) (from UniProt P03377 540-642)” was tested. Which Cell fusion (IC90) did it give?
**A.** The Cell fusion (IC90) was greater than 50000 nM.

**Q.** And the HIV infectivity (IC90)?
**A.** The HIV infectivity (IC90) was greater than 8000 nM.
